Test results published in publication PMC7687889.

Target: human EphA2 ligand-binding domain (LBD) (human) (UniProt P29317)
Assay: SPR

Sequence of EBV gHgL (Epstein-Barr virus glycoprotein H / glycoprotein L complex) (P03231 18-679): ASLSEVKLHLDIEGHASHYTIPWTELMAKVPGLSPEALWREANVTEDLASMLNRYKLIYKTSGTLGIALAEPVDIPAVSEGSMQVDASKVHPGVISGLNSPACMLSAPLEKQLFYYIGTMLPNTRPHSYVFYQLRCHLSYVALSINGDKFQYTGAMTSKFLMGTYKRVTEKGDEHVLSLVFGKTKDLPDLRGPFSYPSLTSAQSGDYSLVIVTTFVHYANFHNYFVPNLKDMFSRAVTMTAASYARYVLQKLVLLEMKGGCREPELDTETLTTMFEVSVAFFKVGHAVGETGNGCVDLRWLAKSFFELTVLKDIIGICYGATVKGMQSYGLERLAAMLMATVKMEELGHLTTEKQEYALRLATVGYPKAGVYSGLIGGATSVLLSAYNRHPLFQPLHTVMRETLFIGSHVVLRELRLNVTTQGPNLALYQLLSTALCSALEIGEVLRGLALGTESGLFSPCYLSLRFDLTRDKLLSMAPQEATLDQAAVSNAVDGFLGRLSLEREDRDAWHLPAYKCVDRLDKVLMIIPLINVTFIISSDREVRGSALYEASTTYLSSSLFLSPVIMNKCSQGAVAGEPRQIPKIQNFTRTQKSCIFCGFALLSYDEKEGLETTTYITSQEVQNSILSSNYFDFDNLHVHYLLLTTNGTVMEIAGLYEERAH
Sequence of EBV gHgL (Epstein-Barr virus glycoprotein H / glycoprotein L complex) (P03212 24-137): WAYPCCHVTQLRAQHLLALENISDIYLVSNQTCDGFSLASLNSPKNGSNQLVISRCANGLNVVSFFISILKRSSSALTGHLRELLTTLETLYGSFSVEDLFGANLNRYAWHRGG
Sequence of KSHV gHgL (Kaposi sarcoma-associated herpesvirus glycoprotein H / glycoprotein L complex) (F5HAK9 22-698): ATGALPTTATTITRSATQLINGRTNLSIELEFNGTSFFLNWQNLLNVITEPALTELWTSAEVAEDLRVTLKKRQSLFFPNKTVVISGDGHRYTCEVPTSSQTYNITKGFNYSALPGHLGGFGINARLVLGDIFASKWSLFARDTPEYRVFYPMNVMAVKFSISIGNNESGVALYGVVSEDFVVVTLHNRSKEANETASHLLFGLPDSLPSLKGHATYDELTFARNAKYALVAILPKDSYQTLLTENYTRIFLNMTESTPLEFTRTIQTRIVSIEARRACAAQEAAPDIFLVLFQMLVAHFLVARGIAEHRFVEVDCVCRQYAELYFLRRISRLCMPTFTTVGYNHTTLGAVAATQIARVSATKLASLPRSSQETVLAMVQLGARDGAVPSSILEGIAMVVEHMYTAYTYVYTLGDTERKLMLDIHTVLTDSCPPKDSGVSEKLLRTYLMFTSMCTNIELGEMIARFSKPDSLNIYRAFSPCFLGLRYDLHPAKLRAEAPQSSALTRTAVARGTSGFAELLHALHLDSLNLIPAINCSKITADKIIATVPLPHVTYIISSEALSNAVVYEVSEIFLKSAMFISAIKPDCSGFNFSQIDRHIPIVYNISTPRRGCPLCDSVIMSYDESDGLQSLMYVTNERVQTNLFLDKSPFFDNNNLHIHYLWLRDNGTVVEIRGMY
Sequence of KSHV gHgL (Kaposi sarcoma-associated herpesvirus glycoprotein H / glycoprotein L complex) (F5HDB7 21-167): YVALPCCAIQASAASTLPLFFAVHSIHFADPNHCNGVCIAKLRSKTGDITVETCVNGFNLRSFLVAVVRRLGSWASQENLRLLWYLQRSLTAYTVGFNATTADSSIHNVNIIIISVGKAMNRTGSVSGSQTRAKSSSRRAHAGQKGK

**Q.** With “EBV gHgL (Epstein-Barr virus glycoprotein H / glycoprotein L complex) (from UniProt P03231;P03212)” as the substance, how does the Kd read?
**A.** 4120 nM

**Q.** With “KSHV gHgL (Kaposi sarcoma-associated herpesvirus glycoprotein H / glycoprotein L complex) (from UniProt F5HAK9;F5HDB7)” as the substance, how does the Kd read?
**A.** 17.5 nM
